This experiment concerns the target T1, 人IL-6重组蛋白 (human, UniProt P05231 30-212, limits assumed).
T1 construct: also called 白细胞介素-6; 白介素6
The experiment in a line: indirect ELISA, IL-6 recombinant protein coated at 2 μg/ml, purified antibody from 10 μg/ml in 3-fold dilutions, HRP goat anti-mouse IgG. (In general: An ELISA detects its analyte on a solid surface through an enzyme-linked reagent.)

B1: 抗人IL-6单克隆抗体 克隆019:1-2H3 (antibody, V domains shown)
VH: QVQLQQSGPQLVRPGASVKISCKASGYSFNRSWMHWVKQRPGQGLEWIGMIDPSDTETRLNQKFKDKATLTVDESSSTAHMQFKRPTSEDSAVYYCARAYGFSIEFAYWGQGTLVTVSA
VL: DIQMSQTSSSLPASLGDRVTISCKASQDIRSYLNWYQQKPDGTVKLLIYYTSRLHSGVPSRFSGSGSGTDFSLTISNLEQEDIATYFCQQGATLPLTFGAGTKLELK
The EC50 is the midpoint of the concentration-response curve. On to B1, for which the EC50 was < 0.025 µg/mL.

B2: 抗人IL-6单克隆抗体 克隆019:8-3F8 (antibody, V domains shown)
VH: EVKLEESGGGLVQPGGSMKLSCAASGFTFSNYWMNWVRQSPEKGLEWVAEIRLRSNKYATHYAESVRGRFTISRDDSINYVYLQMNNLRAEDTGIYYCTRPRYEGTFDVWGAGTTVTVSS
VL: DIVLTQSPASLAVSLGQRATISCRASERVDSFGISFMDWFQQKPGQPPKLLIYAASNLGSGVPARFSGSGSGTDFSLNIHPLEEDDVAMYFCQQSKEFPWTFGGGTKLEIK
As to B2, the 50% effective concentration (EC50) is < 0.025 µg/mL.

The values above are taken from CN112279913A (TAIZHOU BAIYING BIOLOGICAL TECH CO LTD, dated 2021).
